Earlier results on two substances are cited in PMC5650668.

Read-outs that look alike come from different tables or passages of the source.

Data set [1] has as its target ω-agatoxin IVA (Agelenopsis aperta) (UniProt P30288).
For data set [2] the target is unchanged. This is another data set of the same source.

Chain of UniProt P30288 (P30288 whole entry): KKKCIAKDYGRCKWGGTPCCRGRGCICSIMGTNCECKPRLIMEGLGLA

With “Cav2.1 (Q current component) (from UniProt P54282)”, the Kd in data set [1] is greater than 100 nM.

With “Cav2.1 (P current component) (from UniProt P54282)”, in data set [2], the Kd was 2 nM.
